# Measured values reported in patent publication US20260184748A1 (University of Pennsylvania, published 2026).
# Where no end group is shown, it is not given here.
# Columns and labels:
# [1] = target: T1, CCR3 (UniProt P51677 1-355); assay: cell-based or functional assay
# T1 sequence (looked up): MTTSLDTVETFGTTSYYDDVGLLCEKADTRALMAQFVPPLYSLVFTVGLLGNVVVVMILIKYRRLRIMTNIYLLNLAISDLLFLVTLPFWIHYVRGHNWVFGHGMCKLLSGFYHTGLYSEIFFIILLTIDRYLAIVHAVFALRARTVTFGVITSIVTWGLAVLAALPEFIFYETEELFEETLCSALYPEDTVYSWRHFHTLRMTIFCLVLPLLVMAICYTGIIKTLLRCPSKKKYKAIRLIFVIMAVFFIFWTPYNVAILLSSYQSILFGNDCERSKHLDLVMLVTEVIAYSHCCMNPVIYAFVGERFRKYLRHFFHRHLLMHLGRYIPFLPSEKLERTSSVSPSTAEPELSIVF
# [2] = target: EDG4 (UniProt Q9HBW0 1-348); assay: cell-based or functional assay
# Chain of EDG4 (Q9HBW0 whole entry): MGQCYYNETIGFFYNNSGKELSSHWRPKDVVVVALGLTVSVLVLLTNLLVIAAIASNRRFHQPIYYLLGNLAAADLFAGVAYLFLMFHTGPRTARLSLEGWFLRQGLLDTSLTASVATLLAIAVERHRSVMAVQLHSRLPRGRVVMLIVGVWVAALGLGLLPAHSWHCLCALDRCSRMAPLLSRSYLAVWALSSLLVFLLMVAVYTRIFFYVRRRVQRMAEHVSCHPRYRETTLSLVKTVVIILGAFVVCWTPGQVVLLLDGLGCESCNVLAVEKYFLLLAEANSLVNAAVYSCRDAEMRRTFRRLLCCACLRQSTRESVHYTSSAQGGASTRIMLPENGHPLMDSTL
binder,measurement,setting,value
"QATVGDVNTDRPGLLDLK (also: synthesised on Rink amide resin, C-terminal amide not given here outright) [octadecaneuropeptide (ODN)]","% Activity, arrestin, antagonist mode, 2.5 uM",[1],-5.8%
same,"% Activity, arrestin, antagonist mode, 2.5 uM",[2],4.6%
